Test results taken from patent publication US20220401482A1, “GENERATION OF CD38 KNOCK-OUT PRIMARY AND EXPANDED HUMAN NK CELLS” (RESEARCH INSTITUTE AT NATIONWIDE CHILDREN'S HOSPITAL, priority 2019, published 2022).

Biological target: CD38 (cluster of differentiation 38) on human NK cells and multiple myeloma cells (human) (UniProt P28907)
Assay: cell-based or functional assay

daratumumab (antibody) showed a sensitivity to daratumumab-mediated fratricide, unmodified control (CD38-expressing) NK cells of 77%.
